We go through two substances from patent US20240270826A1.

For assay [1], the target named is Human SARS-CoV-2_Wuhan S (SmT1) (SARS-CoV-2 (Wuhan)) (UniProt P0DTC2).
Assay [2] addresses SARS-CoV-2 S1 (aa16-685) (Wuhan) (SARS-CoV-2 Wuhan) (UniProt P0DTC2). The experiment in a line: SPR, antigen on chip. A general note: Surface plasmon resonance follows binding to a sensor surface in real time, without labels.
Assay [3] concerns the target SARS-CoV-2 S1-RBD fused to human Fc (S1-RBD-Fc) (SARS-CoV-2 Wuhan; human). The experiment in a line: SPR, antigen on chip.
Assay [4] addresses SARS-CoV-2 spike trimer S (Wuhan, SmT1) (SARS-CoV-2 Wuhan). Description: SPR, antigen on chip.
The target of assay [5] is SARS-CoV-2 S1 (aa16-685) (Wuhan) (SARS-CoV-2 Wuhan) (UniProt P0DTC2). The experiment in a line: SPR, antigen on chip. The source holds these as a separate data set.
The target in assay [6] is SARS-CoV-2 S1-RBD fused to human Fc (S1-RBD-Fc) (SARS-CoV-2 Wuhan; human). The experiment in a line: SPR, antigen on chip. The source holds these as a separate data set.
Assay [7] concerns the target SARS-CoV-2 spike trimer S (Wuhan, SmT1) (SARS-CoV-2 Wuhan). Description: SPR, antigen on chip. This is another data set of the same source.
Assay [8] has as its target SARS-CoV-2 spike protein S on live virus, Wuhan (strain SARS-CoV-2/Canada/VIDO-01/2020) (SARS-CoV-2 (Wuhan)) (UniProt P0DTC2). Description: cell-based or functional assay.
Assay [9] has as its target Human SARS-CoV-2_Wuhan S (SmT1) (SARS-CoV-2 (Wuhan)) (UniProt P0DTC2). Description: SPR, VHH over immobilised S.
In assay [10] the target is SARS-CoV spike (S) (SARS-CoV) (UniProt P59594). The experiment in a line: SPR, VHH over immobilised S.
The target in assay [11] is Human SARS-CoV-2_Wuhan S (SmT1) (SARS-CoV-2 (Wuhan)) (UniProt P0DTC2). The experiment in a line: tandem SPR, immobilized S, orientation 1: VHH alone.
Assay [12] shares this target. The experiment in a line: flow cytometry SVNA, VHH vs biotin-S binding to Vero E6 ACE2. (A flow cytometer gives signals particle by particle.)
Assay [13] deals with SARS-CoV-2 S on CHO-S cells (SARS-CoV-2) (UniProt P0DTC2). Description: flow cytometry, CHO-S cells.
Assay [14] addresses Human SARS-CoV-2_Wuhan S (SmT1) (SARS-CoV-2 (Wuhan)) (UniProt P0DTC2). The experiment in a line: flow cytometry SVNA, VHH-Fc vs biotin-S binding to Vero E6 ACE2.
Assay [15] deals with Human SARS-CoV S (SARS-CoV) (UniProt P59594). The experiment in a line: flow cytometry SVNA: VHH-Fc inhibits S binding to ACE2 on Vero E6 cells.
Assay [16] concerns the target Human SARS-CoV-2_Wuhan S (SmT1) (SARS-CoV-2 (Wuhan)) (UniProt P0DTC2). The assay is described as above.

“And” between values parts separate entries of the source, which are not always exact repeats. Identical values can stand only once. Like-named read-outs stand apart in the source and are kept apart here.

The term Kd denotes the free concentration of one partner at which half of the binding sites on the other are occupied at equilibrium, for simple one-to-one binding. High values mean lower affinity, low ones higher affinity. As a reminder, the koff is a measure of how fast the partners let go of each other. Low values mean slow dissociation, high ones fast dissociation. What is called kon is the second-order rate constant of association. A high value points to faster complex formation. The term IC50 denotes the concentration that gives 50% inhibition. High values mean weaker potency, low ones greater potency. The IC99 is the concentration at which the effect reaches the 99% level. Higher therefore signals weaker potency. As to VHH-72 VHH, the End 2nd inj (RU) in assay [1] was 37.8 RU and 51.2 RU. Moreover, the equilibrium dissociation constant (Kd) in assay [2] is 156 nM; in [3], 200 nM; in [4], 142 nM; in [5], 194 nM; in assay [6], 185 nM; in [9], 86.2 nM. In assay [10], this substance showed a Kd of 6.52 nM. Also, the koff in assay [2] was determined as 0.146 s⁻¹; in assay [3], 0.134 s⁻¹; in assay [4] it was 0.156 s⁻¹; in [5], 0.161 s⁻¹; in assay [6], 0.126 s⁻¹; in assay [7] it was 0.15 s⁻¹. Further, the results for the koff in [9] and in [10] were 0.106 s⁻¹ and 0.00656 s⁻¹, respectively. Also, the kon in [2] was 940000 M⁻¹ s⁻¹; in [3], 667000 M⁻¹ s⁻¹; in [4], 1.1e+06 M⁻¹ s⁻¹; in assay [5] it was 830000 M⁻¹ s⁻¹; in assay [6] it was 682000 M⁻¹ s⁻¹; in assay [7], 1.06e+06 M⁻¹ s⁻¹. In addition, the kon in assay [9] turned out to be 1.23e+06 M⁻¹ s⁻¹; in assay [10], 1.01e+06 M⁻¹ s⁻¹. The substance further registered an MN100 in [8] of 156 nM. The same substance gave an End 1st inj (RU) in assay [11] of 25.8 RU. For the same substance, the IC50 in assay [12] stood at 59 nM. Moreover, the IC99 in assay [12] is 9.41 µM. The same substance gave an Imax % in assay [12] of 43%.

As usually defined, the EC50 is the concentration giving half of the maximal effect. High values mean lower potency in that assay, low ones higher potency in that assay. Consider VHH-72 VHH-Fc (Fc fusion), for which, in [8], the LVNA IC50 was found to be 8.46 nM and the MN100 amounted to 1.25 nM. In addition, in assay [13], the Bmax turned out to be 8030 and the concentration for a half-maximal effect (EC50) was determined as 0.2 nM. In assay [14], this substance yielded an IC50 of 7.2 nM, an IC99 of 238 nM and an Imax % of 57%. The IC50 in [15] was found to be 7.8 nM. In addition, in assay [16], the IC50 worked out at 5.6 nM.
